Laboratory results taken from US12637513B2, “Method of treating cancer by administering an inhibitor of erythropoietin receptor activity comprising either erythropoietin receptor or erythropoietin protein” (ImmunEdge, Inc., priority 2022, dated 2026).

Columns and labels:
[1] = target: T1, soluble hetero-EPOR (EPOR-CD131-Fc) (Homo sapiens, UniProt P19235+P32927); test: Bio-layer interferometry (Octet) binding of hybridoma antibodies to EPOR-CD131-Fc; conditions: hybridoma supernatants; 30 nM soluble receptor
T1 construct: Chimeric Fc fusion proteins of the extracellular domains of human EPOR and human CD131; purchased Sino Biological CT010-H02H
T1 sequence (P19235 25-250 limits assumed): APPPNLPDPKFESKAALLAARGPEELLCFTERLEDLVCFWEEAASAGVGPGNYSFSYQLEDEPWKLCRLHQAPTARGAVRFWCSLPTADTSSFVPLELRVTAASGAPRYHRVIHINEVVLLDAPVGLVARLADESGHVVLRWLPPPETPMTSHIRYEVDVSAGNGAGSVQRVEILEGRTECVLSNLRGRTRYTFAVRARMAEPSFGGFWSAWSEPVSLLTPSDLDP
T1 sequence (P32927 17-443 limits assumed): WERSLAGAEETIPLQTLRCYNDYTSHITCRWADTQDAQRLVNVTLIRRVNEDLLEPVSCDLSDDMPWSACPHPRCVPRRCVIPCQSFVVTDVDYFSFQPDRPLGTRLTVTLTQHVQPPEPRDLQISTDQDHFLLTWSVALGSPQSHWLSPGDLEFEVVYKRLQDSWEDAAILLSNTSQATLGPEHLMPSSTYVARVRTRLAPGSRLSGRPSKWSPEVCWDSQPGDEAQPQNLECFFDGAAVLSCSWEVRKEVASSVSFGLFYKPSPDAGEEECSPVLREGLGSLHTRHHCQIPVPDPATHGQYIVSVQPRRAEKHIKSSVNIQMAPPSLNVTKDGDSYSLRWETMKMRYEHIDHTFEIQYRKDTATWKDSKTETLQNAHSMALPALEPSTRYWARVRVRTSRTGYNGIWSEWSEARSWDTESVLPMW
From the text: (§1) The B cells from ATX-GK mice were fused with mouse myeloma cells to generate hybridoma. The hybridoma cells were screened twice. In the first screening, 293 cells expressing human EPOR, human CD131, or both were used as the primary screen. 87 hybridoma antibodies have been isolated by positive staining on 293T cells expressing human EPOR (hEPOR), human CD131 (hCD131), or both, with the hybridoma supernatants (Table 11 and FIG. 17). Expression of EPOR and CD131 was confirmed by flow cytometry with Phycoerythrin (PE)-labeled anti-EPOR (R&D Systems, Cat #FAB307P) and Alexa Fluor® 647 (AF647)-labeled anti-CD131 (BD Biosciences, Cat #564191), respectively (FIG. 28B). All hybridoma clones were purified and sequenced. Binding kinetics with soluble hetero-EPOR (EPOR-CD131-Fc), soluble EPO receptor subunit of hetero-EPOR (EPOR-Fc), and soluble CD131 subunit of hetero-EPOR (CD131-Fc) were measured using bio-layer interferometry (Octet®) by capturing the hybridoma antibodies in the supernatants on biosensors coated with anti-mouse Fc first and dipping the biosensors into the solutions containing 30 nM of the soluble receptor Fc fusion proteins. The supernatants were also used to block the interaction between EPO and EPOR. The soluble EPOR-CD131-Fc was first captured on biosensors coated with anti-human Fc and then dipped into 10 nM of EPO with or without the hybridoma supernatants. […]

EPOR-Fc = target: T2, EPOR-Fc (Homo sapiens, UniProt P19235); test: Bio-layer interferometry (Octet) binding of hybridoma antibodies to EPOR-Fc; conditions: hybridoma supernatants; 30 nM soluble receptor
T2 construct: The extracellular domains of EPOR or CD131 are produced as soluble Fc fusion proteins; purchased Sino Biological 10707-H02H
T2 sequence (P19235 25-250 limits assumed): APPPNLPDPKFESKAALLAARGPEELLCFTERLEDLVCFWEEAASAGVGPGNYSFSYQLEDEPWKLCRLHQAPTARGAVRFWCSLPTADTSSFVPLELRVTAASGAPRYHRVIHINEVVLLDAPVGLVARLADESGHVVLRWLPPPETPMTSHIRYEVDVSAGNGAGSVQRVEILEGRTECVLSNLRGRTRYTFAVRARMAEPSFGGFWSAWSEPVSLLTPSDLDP
From the text: as §1

293T/EPOR/CD131 cells = target: T3, 293T/EPOR/CD131 cells (Homo sapiens, UniProt P19235); test: Staining of 293T/EPOR/CD131 cells with purified antibodies; assay type: binding
T3 construct: expressed in transfected cells; host or cells: 293T cells, lentiviral transduction
T3 sequence (P19235 25-508): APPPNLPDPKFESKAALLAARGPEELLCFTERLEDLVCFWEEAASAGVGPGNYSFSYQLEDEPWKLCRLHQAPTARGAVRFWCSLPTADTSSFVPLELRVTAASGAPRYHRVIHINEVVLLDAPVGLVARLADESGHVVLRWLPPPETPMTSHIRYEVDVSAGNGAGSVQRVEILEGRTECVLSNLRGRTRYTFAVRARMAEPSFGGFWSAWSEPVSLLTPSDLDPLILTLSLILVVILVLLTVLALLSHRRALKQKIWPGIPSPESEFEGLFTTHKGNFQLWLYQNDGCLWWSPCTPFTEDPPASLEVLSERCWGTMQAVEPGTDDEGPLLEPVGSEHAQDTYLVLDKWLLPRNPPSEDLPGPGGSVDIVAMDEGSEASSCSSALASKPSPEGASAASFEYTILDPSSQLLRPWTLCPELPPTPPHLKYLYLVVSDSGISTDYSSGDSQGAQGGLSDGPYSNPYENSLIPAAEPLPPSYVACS
Protocol: (§2) The purified antibodies were used to stain the human leukemia UT-7 cells, 293T/EPOR, 293T/CD131, and 293T/EPOR/CD131 cells to confirm antigen binding. The UT-7 cells were maintained in Roswell Park Memorial Institute (RPMI) with 10% Fetal Bovine Serum (FBS) and 5 ng/ml of recombinant human GM-CSF (Peprotech®, Cat #300-03). The 293T cells expressing hEPOR, hCD131, or both were maintained in Dulbecco's Modified Eagle Medium (DMEM) with 10% FBS. 1×10^6 cells/ml were incubated with purified hybridoma clones M2 and M41 at a 3-fold dilution series starting from 20 μg/ml for 30 minutes at 4° C. After washing, the cells were incubated with PE labeled secondary antibody and subjected to flowcytometric analysis. […] The binding profiles of the 293T/EPOR/CD131 cells are similar except the peak MFIs around 1500, half of that of the 293T/EPOR cells (FIG. 29B).

293T/EPOR cells = target: T4, 293T/EPOR cells (Homo sapiens, UniProt P19235); test: Staining of 293T/EPOR cells with purified antibodies (flow cytometry); assay type: binding
T4 construct: expressed in transfected cells; host or cells: 293T cells expressing hEPOR
T4 sequence (P19235 25-508): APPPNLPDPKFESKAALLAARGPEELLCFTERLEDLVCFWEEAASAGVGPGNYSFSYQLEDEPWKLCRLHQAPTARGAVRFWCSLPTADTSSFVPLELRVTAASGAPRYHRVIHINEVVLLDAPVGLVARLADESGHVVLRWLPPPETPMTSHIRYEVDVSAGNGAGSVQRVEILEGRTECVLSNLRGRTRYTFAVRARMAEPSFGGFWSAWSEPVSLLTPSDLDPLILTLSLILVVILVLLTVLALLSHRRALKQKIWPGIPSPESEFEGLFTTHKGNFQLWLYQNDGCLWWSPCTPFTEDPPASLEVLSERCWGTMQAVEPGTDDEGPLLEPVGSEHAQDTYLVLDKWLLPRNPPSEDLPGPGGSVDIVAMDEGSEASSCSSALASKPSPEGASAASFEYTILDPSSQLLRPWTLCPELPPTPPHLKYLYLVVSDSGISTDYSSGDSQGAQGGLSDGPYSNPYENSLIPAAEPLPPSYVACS
Protocol: as §2

EPOR (UT-7 cells) = target: T5, EPOR (UT-7 cells) (Homo sapiens, UniProt P19235); test: Flow-based phosphorylated Stat5 assay, blocking by anti-EPOR antibodies; assay type: cell-based; conditions: 20 μg/ml antibody; 0.1 μg/ml recombinant human EPO
T5 construct: endogenous in cells; host or cells: UT-7 human leukemia cells
T5 sequence (P19235 25-508): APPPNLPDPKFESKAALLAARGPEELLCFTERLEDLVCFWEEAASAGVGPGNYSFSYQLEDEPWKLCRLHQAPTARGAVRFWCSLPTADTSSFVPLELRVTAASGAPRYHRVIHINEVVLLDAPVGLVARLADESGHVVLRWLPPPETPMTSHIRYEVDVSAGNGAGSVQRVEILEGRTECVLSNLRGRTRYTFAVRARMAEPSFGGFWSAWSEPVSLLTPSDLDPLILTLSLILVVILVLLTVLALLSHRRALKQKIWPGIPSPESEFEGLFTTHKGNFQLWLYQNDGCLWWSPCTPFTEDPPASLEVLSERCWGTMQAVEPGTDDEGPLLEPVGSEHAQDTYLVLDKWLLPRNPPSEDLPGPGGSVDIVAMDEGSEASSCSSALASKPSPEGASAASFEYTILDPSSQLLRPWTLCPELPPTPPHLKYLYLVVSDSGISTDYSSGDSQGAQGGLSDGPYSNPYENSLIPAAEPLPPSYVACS
Protocol: EPOR activation leads to phosphorylation of Stat5. A flow-based assay on phosphorylated Stat5 was set up to test the blocking activities of anti-EPOR antibodies. The UT-7 cells were cultured without GM-CSF for overnight before the EPO stimulation. 3×10^6 cells/ml were incubated with 20 μg/ml of anti-EPOR for 15 minutes before stimulation with 0.1 μg/ml of recombinant human EPO (Peprotech®, Cat #100-64) for 10 minutes at 37° C. The cells were fixed immediately with fixation buffer (Cytofix™ buffer; BD Biosciences, Cat #554655) and permeabilized with methanol. After washing, cells were stained with PE labeled anti-Stat5 (BD Biosciences, Cat #612567) and subjected to flow cytometry analysis.

UT-7 cells = target: T6, UT-7 cells (Homo sapiens, UniProt P19235); test: Staining of UT-7 cells with purified antibodies; assay type: binding
T6 construct: endogenous in cells; host or cells: UT-7 human leukemia cells
T6 sequence (P19235 25-508): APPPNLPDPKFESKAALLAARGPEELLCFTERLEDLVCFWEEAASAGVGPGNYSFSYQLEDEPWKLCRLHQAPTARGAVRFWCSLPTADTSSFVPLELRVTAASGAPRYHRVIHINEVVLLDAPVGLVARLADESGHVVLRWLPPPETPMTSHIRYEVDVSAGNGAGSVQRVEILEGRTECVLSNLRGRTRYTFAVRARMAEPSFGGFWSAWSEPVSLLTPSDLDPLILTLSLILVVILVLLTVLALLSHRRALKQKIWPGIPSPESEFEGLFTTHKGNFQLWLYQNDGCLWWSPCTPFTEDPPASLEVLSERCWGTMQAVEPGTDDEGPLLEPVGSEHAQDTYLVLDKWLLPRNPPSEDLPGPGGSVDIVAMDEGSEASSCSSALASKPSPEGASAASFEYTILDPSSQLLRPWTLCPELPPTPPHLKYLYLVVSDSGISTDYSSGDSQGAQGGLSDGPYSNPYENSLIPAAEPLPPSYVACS
Protocol: as §2

binding to EPOR-CD131-Fc [1]: potent binding
binding to EPOR-Fc (EPOR-Fc): potent binding
peak MFI (293T/EPOR/CD131 cells): around 1500
mean or median fluorescence intensity (MFI) (293T/EPOR cells; 27 ng/ml purified antibody, 293T/EPOR cells): ~100%
binding to 293T/EPOR cells (293T/EPOR cells; 20 μg/ml purified antibody): robust binding activities
blocking of Stat5 phosphorylation (EPOR (UT-7 cells)): complete blocking
MFI (UT-7 cells): ~18,000
B1: EPORab - M2: hybridoma antibody clone, VH/VK in Table 10 (antibody, V domains shown)
VH: QVQLVESGGGLVKPGGSLRLSCAASGFTFSDSYMSWIRQAPGKGLEWVSYISNSGSYMYYADSVKGRFTISRDNAKNSLYLQMNNLRAEDTAVYYCARDKLGIGDYWGQGTLVTVSS
VL: DIQMTQSPSSLSASVGDRVTITCRASQGIRNDLGWFQQKPGKAPKRLIYAASRLQSGVPSRFSGSGSGTEFTLTISSLQPEDFATYCCLQHHTYPPTFGQGTKVEIK
